Results taken from the supplement of paper PMC10567573.

B1: EHMT1 (parent)
chain: FHKDCASRVNNASYCPHCGEESSK
B2: MGC16075 (parent)
chain: AGSRQALSFEVPPCNYDPEKWIQ

Variants of: B1
Assay: protein stability index of a GFP-peptide fusion (GPS, HEK-293T) (PSI 1-6); higher = more stable
Settings: c terminus: a fixed tail appended
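Further: lentivirally expressed fusions sorted by FACS into six bins by GFP to DsRed ratio, PSI derived from sequencing read proportions per bin multiplied by bin number.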

Protein stability index, by site and new letter:
F1: I 4.55, K 4.62, M 4.9, T 4.43, S 4.77, R 4.59, E 5.17, V 4.78, D 4.77, N 4.87, L 4.78, P 4.43, Q 5.09, H 5.16, W 4.02, A 4.71, G 5.15, Y 3.85, C 5.43
H2: K 4.17, C 5.31, D 4.8, A 2.61, F 3.27, I 2.08, E 4.62, G 3.6, L 3.58

Variants of: B2
Assay: as above
Settings: c terminus: native

Protein stability index, by site and new letter:
P13: G 2.1, T 1.99, F 2.1, E 1.44, A 1.43, V 2.19, D 1.8, H 1.2, N 1.27, R 1.29, K 2.34, S 2.66, M 1.3, C 3, Q 2.03, L 1.62, Y 2.88, I 2.7, W 1.98
W21: K 3.53, A 2.33, V 2.88, F 2.89, H 2.32, M 3.23, I 4.03, R 2.16, Q 2.83, P 5.2, L 2.17, N 2.42, D 3.28
E10: Q 1.23, R 1.97, M 2.56, A 3.25, Y 1.75, H 3.09, C 2.27, D 2.6, I 2.29, N 1.7, K 1.67, S 2.44, V 1.08, P 2.3, G 1.83
Q23: K 1.91, M 1.82, F 2.23, H 2.55, V 4.81, N 2.83, E 1.97, D 1.34, Y 2, P 4.37, W 1.24, G 3.04, I 2.43
L7: C 2.75, Y 1.76, W 2.77, R 2.5, F 3.58, E 3.23, V 1.78, P 1.26, M 1.86, G 2.06, I 2.07, Q 2.57, D 2.45, T 2.42, K 1.82, N 2.72, A 2.09, S 2.11, H 2.33
N15: G 2.03, Q 3.17, K 2.53, I 2.06, Y 2.7, A 1.71, P 2.68, C 2.23, D 1.78, F 1.96, E 1.58, T 1.64, R 2.62, L 1.99, H 1.28, S 1.35, W 2.14, M 1.84
Y16: W 1.47, D 2.52, H 1.46, G 3.5, K 1.61, P 2.22, N 2.2, T 2.53, E 2.64, L 2.04, Q 2.54, R 1.24, S 1.48, M 2.03, C 2.17, V 2.47, I 2.01, F 1.68, A 1.54
V11: C 2.02, L 1.3, W 2.04, Y 3.25, M 2.11, Q 2.38, E 2.07, A 2.52, H 1.93, S 1.84, G 1.63, I 2.6, N 1.68, P 1.75, R 2, D 2.93, K 2.61, T 1.89
A6: M 2.98, W 3.24, Q 1.99, V 2.59, P 1.56, S 1.6, R 2.29, N 2.16, T 1.53
I22: L 3.92, Y 2.85, M 4.14, N 4.99, S 5.03, C 4.56, V 2.75, G 5.11, F 4.43, Q 4.78, W 3.22, K 4.72, E 4.4, P 4.72, T 4.85, A 4.22, D 4.97, H 4.62
P18: D 1.93, S 1.78, Q 2.03, H 1.84, V 1.99, Y 1.87, L 2.72, W 1.1, E 2.79, C 2.3, G 2.41, K 1.79, M 1.91, R 2.36, A 1.62, I 1.92, F 1.6, N 2.15, T 1.82
E19: P 2.28, Y 2.07, G 2.16, D 2.54, R 2.14, L 3.01, M 1.52, K 3.27, W 2.47, H 2.64, V 1.86, Q 2.72, A 1.22, T 1.97, S 2.2, C 1.76, I 1.84, F 2.33
S8: V 1.54, K 2.09, R 1.89, C 2.6, E 3.24, T 3.31, L 1.98, W 2.05, N 1.91, A 1.79, Q 1.26, Y 3.25, D 2.32, G 1.83, F 2.92, H 2.05, P 1.91, I 1.59
P12: I 1.17, R 1.81, L 4.23, T 1.99, K 1.73, S 1.71, V 2.72, M 2.33, A 1.79, W 2.69, E 2.14, G 1.37, D 1.97, Q 2, N 1.67, F 2.92, C 2.41
F9: L 2.48, T 2.79, W 2.5, Q 3.05, M 2.29, R 2.78, P 3.09, C 2.57, V 2.57, N 3.75, S 2.77, H 2.86, A 2.63, K 3.19, Y 2, D 3.05, G 3.14, E 3.49, I 2.07
C14: L 1.39, M 1.23, K 1.64, S 2.56, H 2.1, W 1.56, F 1.5, I 1.59, V 1.95, Y 2.23, G 1.42, R 1.92, A 2.28, T 2.2, N 1.92, D 2, E 2.21, Q 2.05
K20: T 3.33, I 2.46, D 4.29, V 1.96, H 3.7, G 3.9, S 3.77, C 2.26, W 3.58, F 3.49, Q 4.32, Y 3.78, M 2.69, N 3.71, A 3.93, P 4.17, R 1.98
D17: G 2.29, N 1.51, K 3.23, R 2.15, H 2.12, Y 2.15, T 1.92, W 1.91, C 1.29, Q 2.18, V 2, P 1.74, L 1.81, E 2.07, I 2.17, F 1.57, S 1.49, A 2.18, M 1.9
